Results published in article PMC8757827, “A Novel Regulation of K-antigen Capsule Synthesis in Porphyromonas gingivalis Is Driven by the Response Regulator PG0720-Directed Antisense RNA”.

B1: 77-bp region (77bpIR2) (dsDNA)
DNA 1: ATTCGCACTTGTTTGATAATTGAATGTAGCAATCATGAGATCTATAAGTGTGTAACGGTTCAAATGCGATTGTCCTG
DNA 2: CAGGACAATCGCATTTGAACCGTTACACACTTATAGATCTCATGATTGCTACATTCAATTATCAAACAAGTGCGAAT

Key:
[1] = target: T1, PG0720 response regulator (Porphyromonas gingivalis W83) (UniProt Q7MWB1); assay: DNase I footprinting; details: 10 mM HEPES pH 7.8, 50 mM KCl, 5 mM MgCl2, 1 mM DTT, 1 mM EDTA, 1 ug poly(dI-dC), 1 ug BSA, 10% glycerol, 20 mM acetyl phosphate, room temperature 30 min …
T1 sequence: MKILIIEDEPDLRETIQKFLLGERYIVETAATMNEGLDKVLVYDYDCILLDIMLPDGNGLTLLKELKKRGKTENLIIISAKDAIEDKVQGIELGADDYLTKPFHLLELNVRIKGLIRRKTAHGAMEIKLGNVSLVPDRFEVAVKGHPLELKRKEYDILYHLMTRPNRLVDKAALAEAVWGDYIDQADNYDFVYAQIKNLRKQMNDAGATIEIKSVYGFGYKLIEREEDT

[2] = target: T1, PG0720 response regulator (Porphyromonas gingivalis W83); assay: EMSA; details: 10 mM HEPES pH 7.8, 50 mM KCl, 5 mM MgCl2, 1 mM DTT, 1 mM EDTA, 1 ug poly(dI-dC), 1 ug BSA, 10% glycerol, 20 mM acetyl phosphate, room temperature 30 min …
[3] = target: T2, PG0720 response regulator (Porphyromonas gingivalis W83, UniProt Q7MWB1 1-229); assay: EMSA; 20 mM acetyl phosphate; 5 mM Mg2+; up to 140 pmol protein, 3 fmol DNA; 10 mM HEPES pH 7.8, 50 mM KCl, 5 mM MgCl2, 1 mM DTT, 1 mM EDTA, 1 ug poly(dI-dC), 1 ug BSA, 10% glycerol, 20 mM acetyl phosphate, room temperature 30 min, 10 ul (50 ul for footprinting); details: protein: recombinant; tags: none (N-His-SUMO removed by SUMO Express protease); chain copies: 2; label: 5' biotin; blunt
T2 sequence: T1 sequence

Molecule	binding [2]	other results
CAAACAAGTGCGAATCCATATGTCAGAGATTCAAATCATAGAGGAAAGAGACTAAAAATTTTCAAACGCGATCGCCCTGACAGGCTACCCCCGGGGT (double strand) [asSuGR promoter 97-bp footprint probe]		binding [1]: binds
TGTCAGGGCGATCGCGTTTGAAAATTTTTAGTCTCTTTCCTCTATGATTTGAATCTCTGACATATGG (double strand) [asSuGR promoter 67-bp]	binds	
ACACATCACAACAATATCTTCAATAACATACCCCACATCCGCCCGTCTTCACTACGATCTAAATAAAATTTCCCCAATGACAAAACCGCCTTATTTTAAAAATTACACATAACAGAAAAAAGAGTGATTCTCATTATACTTTCTTTGACAATCAAATCCTTTCAACGATGATTTTTGAGACCCTAATAGAGCGCAAAGGTAATTAATTATCGTCTATATTCCTAAATCCCAGTGGAATGATTCAGGAC (double strand) [PG0106 upstream promoter 248-bp]	no binding	
TGTCAGGGCGATCGCGTTTGAAAATTTTTAGTCTCTTTCCTCTATGATTTGAATCTCTGACATATGGATTCGCACTTGTTTGATAATTGAATGTAGCAATCATGAGATCTATAAGTGTGTAACGGTTCAAATGCGATTGTCCTGAATCATTCCA (double strand) [asSuGR promoter 154-bp]	binds	
B1		binding result [3]: no binding
